Source: patent US20150037348A1 (AbbVie / Abbott, published 2015)
Numbering of substitutions follows the chain as printed. One block for each binder: values may come before it.

Columns and labels:
[1] = target: T1, recombinant human IL-12 (rhIL-12) (human, UniProt P29459 23-219; P29460 23-328); experiment: cell-based or functional assay
T1 sequence (looked up) 1: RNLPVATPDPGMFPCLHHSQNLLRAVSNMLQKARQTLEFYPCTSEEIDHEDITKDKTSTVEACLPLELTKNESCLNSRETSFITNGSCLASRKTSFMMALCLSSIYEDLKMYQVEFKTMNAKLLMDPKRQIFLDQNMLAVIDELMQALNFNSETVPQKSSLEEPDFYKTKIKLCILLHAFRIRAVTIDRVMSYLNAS
T1 sequence (looked up) 2: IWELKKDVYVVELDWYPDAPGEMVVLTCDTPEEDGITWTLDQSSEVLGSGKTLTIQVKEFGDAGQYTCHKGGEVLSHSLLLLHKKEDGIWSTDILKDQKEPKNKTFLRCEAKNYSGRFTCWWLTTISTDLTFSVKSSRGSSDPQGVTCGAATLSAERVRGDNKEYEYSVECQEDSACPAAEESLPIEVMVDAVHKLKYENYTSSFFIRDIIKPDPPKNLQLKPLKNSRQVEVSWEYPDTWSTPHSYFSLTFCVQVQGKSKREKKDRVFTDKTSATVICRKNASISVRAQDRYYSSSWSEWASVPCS

[2] = target: T2, dog IL-12 (PBMC supernatant) (dog, UniProt Q28267 26-222; Q28268 23-329); experiment: cell-based or functional assay
T2 sequence (looked up) 1: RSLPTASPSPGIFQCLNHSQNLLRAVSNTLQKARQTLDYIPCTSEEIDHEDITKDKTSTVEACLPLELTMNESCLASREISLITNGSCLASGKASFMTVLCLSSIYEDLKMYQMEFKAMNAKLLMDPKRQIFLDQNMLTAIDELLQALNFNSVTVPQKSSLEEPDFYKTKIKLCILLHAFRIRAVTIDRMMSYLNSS
T2 sequence (looked up) 2: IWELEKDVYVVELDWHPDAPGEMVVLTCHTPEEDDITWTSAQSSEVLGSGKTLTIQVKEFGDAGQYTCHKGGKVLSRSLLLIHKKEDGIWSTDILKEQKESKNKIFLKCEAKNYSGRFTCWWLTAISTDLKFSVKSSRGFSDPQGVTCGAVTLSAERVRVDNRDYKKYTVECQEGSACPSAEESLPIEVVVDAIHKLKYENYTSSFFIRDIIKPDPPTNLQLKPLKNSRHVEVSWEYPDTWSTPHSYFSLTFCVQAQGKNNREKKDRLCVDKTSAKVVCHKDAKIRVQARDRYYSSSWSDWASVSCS

[3] = target: T3, cynomolgus IL-12 (PBMC supernatant) (cynomolgus monkey); experiment: cell-based or functional assay
T3 chain 1: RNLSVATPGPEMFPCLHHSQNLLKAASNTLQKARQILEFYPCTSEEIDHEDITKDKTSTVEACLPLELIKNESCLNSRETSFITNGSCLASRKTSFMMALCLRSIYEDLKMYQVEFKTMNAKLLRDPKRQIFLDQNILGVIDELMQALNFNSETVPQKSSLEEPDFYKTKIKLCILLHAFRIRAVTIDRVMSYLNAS
T3 chain 2: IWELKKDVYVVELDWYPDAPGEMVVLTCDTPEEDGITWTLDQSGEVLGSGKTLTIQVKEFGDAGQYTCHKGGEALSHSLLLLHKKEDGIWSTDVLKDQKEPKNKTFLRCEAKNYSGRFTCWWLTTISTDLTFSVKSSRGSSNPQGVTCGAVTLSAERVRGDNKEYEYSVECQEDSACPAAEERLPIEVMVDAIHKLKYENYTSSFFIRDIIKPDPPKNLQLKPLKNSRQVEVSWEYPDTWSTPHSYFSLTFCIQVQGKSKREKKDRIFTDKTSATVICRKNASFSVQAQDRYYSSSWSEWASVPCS

[4] = target: T4, baboon IL-12 (PBMC supernatant) (baboon); experiment: cell-based or functional assay
T4 chain 1: T3 chain 2 with V230A
T4 chain 2: T3 chain 1 with F82V, N85K, K110Q, M111I, R125M, K172R

[5] = target: T1, recombinant human IL-12 (rhIL-12); experiment: biomolecular interaction assay (BIAcore)
Procedure: Three independent experiments were performed, and the values shown are averages for the three experiments. From these measurements, the apparent dissociation (kd) and association (kₐ) rate constants were derived and used to calculate a Kd value for the interaction (see Table 10).

[6] = target: T5, chimeric IL-12 (murine p35 subunit with the human IL-12 p40 subunit) (mouse; human, UniProt P43431 23-215; P29460 23-328); experiment: inhibition of IFN-γ production in mice given chimeric IL-12
T5 sequence (looked up) 1: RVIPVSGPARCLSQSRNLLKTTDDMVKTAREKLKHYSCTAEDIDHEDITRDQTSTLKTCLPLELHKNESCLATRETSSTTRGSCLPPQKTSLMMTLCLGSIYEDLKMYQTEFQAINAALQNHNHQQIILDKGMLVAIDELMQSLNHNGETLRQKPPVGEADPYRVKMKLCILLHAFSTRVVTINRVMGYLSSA
T5 sequence (looked up) 2: T1 sequence (looked up) 2
Procedure: The control hulgG1γ was given IP. at a dose of 0.05 mg/kg on days 0, 2, and 4. The mice were bled on day 5, and serum IFN-γ levels were determined by ELISA.

- IC50 (M), bioassay, Human IL-12 Purified [1]: 5e-12 M
- IC50 (M), bioassay, Dog IL-12 PBMC sup [2]: 3.5e-10 M
- IC50 (M), bioassay, Cyno IL-12 PBMC sup [3]: 1e-11 M
- IC50 (M), bioassay, Baboon IL-12 PBMC sup [4]: 1.5e-11 M
- Kd [5]: 0.0974 nM
B1: J695 (antibody, human IgG1, V domains shown)
VH: QVQLVESGGGVVQPGRSLRLSCAASGFTFSSYGMHWVRQAPGKGLEWVAFIRYDGSNKYYADSVKGRFTISRDNSKNTLYLQMNSLRAEDTAVYYCKTHGSHDNWGQGTMVTVSS
VL: QSVLTQPPSVSGAPGQRVTISCSGSRSNIGSNTVKWYQQLPGTAPKLLIYYNDQRPSGVPDRFSGSKSGTSASLAITGLQAEDEADYYCQSYDRYTHPALLFGTGTKVTVLG
notes: human IgG1 with lambda light chain

B2: J695 (antibody, V domains shown)
VH: B1 VH
VL: B1 VL
notes: Human IgG1 with lambda light chain (detected with anti-human lambda); Made in CHO or COS cells
- binding result [6]: binds
